Tested on: Escherichia coli TOP10
Assay: shrunken log2 fold change of peptide-encoding DNA abundance (4.5 h post-induction vs induction); higher = less antimicrobial activity (less host growth inhibition)
Settings: time post-induction: 4.5 h; library: site-saturation at positions 5, 18, 19, 20
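Also: peptides expressed intracellularly from a pBAD plasmid library in pooled LB shake-flask culture, induced with 0.3% L-arabinose, DNA abundance read by NGS, three biological replicates, DESeq2 with apeglm shrinkage.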

Sequence	shrunken log2 fold change
RRIRMRPPRLPRPRPRPWHAPRP	0.098
RRIRQRPPRLPRPRPRPCLMPRP	-0.0141
RRIRKRPPRLPRPRPRPYWVPRP	-0.306
RRIRQRPPRLPRPRPRPLQNPRP	0.139
RRIRIRPPRLPRPRPRPTFQPRP	-0.0244
RRIRRRPPRLPRPRPRPTDQPRP	0.552
RRIRLRPPRLPRPRPRPINLPRP	-0.573
RRIRGRPPRLPRPRPRPGPDPRP	0.62
RRIRDRPPRLPRPRPRPFELPRP	-0.0281
RRIRGRPPRLPRPRPRPLVMPRP	0.263
RRIRTRPPRLPRPRPRPVSHPRP	-0.265
RRIRRRPPRLPRPRPRPQERPRP	-0.0784
RRIRPRPPRLPRPRPRPGWLPRP	0.468
RRIRTRPPRLPRPRPRPHQYPRP	-0.259
RRIRDRPPRLPRPRPRPYNMPRP	-0.0758
RRIRYRPPRLPRPRPRPYLRPRP	-0.00962
RRIRFRPPRLPRPRPRPSSPPRP	-0.284
RRIRPRPPRLPRPRPRPGGKPRP	0.12
RRIRHRPPRLPRPRPRPKGTPRP	-0.0951
RRIRSRPPRLPRPRPRPTGDPRP	0.353
RRIRLRPPRLPRPRPRPFLFPRP	-0.34
RRIRRRPPRLPRPRPRPLWNPRP	0.117
RRIRNRPPRLPRPRPRPQFAPRP	-0.0842
RRIRGRPPRLPRPRPRPGHHPRP	0.16
RRIRHRPPRLPRPRPRPVWRPRP	0.0724

Sequence	shrunken log2 fold change
RRIRSRPPRLPRPRPRPREQPRP	0.796
RRIRDRPPRLPRPRPRPMYCPRP	-0.00227
RRIRKRPPRLPRPRPRPGSTPRP	0.131
RRIRQRPPRLPRPRPRPINAPRP	-0.116
RRIRHRPPRLPRPRPRPEMWPRP	0.263
RRIRWRPPRLPRPRPRPDILPRP	0.0776
RRIRDRPPRLPRPRPRPDIEPRP	0.105
RRIRRRPPRLPRPRPRPPTCPRP	0.474
RRIRPRPPRLPRPRPRPDNEPRP	-0.0784
RRIRMRPPRLPRPRPRPYAPPRP	-0.24
RRIRKRPPRLPRPRPRPTFYPRP	0.11
RRIRWRPPRLPRPRPRPTRQPRP	0.195
RRIRRRPPRLPRPRPRPPWWPRP	0.862
RRIRTRPPRLPRPRPRPQVYPRP	-0.168
RRIRCRPPRLPRPRPRPTDSPRP	-0.118
RRIRVRPPRLPRPRPRPKKPPRP	-0.0463
RRIRSRPPRLPRPRPRPLKCPRP	-0.0843
RRIRWRPPRLPRPRPRPGGWPRP	0.851
RRIRMRPPRLPRPRPRPIDPPRP	-0.0553
RRIRVRPPRLPRPRPRPKIFPRP	-0.00445
RRIRSRPPRLPRPRPRPDQGPRP	-0.196
RRIRYRPPRLPRPRPRPFKEPRP	-0.146
RRIRARPPRLPRPRPRPMRFPRP	0.869
RRIRCRPPRLPRPRPRPGSGPRP	0.496
RRIRNRPPRLPRPRPRPFSIPRP	0.000741

Sequence	shrunken log2 fold change
RRIRDRPPRLPRPRPRPIDMPRP	-0.185
RRIRCRPPRLPRPRPRPSIVPRP	-0.965
RRIRYRPPRLPRPRPRPFYTPRP	-1.19
RRIRPRPPRLPRPRPRPTTSPRP	0.181
RRIRHRPPRLPRPRPRPLTPPRP	-0.119
RRIRERPPRLPRPRPRPTGHPRP	-0.0413
RRIRERPPRLPRPRPRPLQTPRP	0.22
RRIRFRPPRLPRPRPRPHCAPRP	-0.17
RRIRIRPPRLPRPRPRPDASPRP	-0.00609
RRIRHRPPRLPRPRPRPCESPRP	0.0295
RRIRIRPPRLPRPRPRPMWPPRP	0.128
RRIRVRPPRLPRPRPRPTPVPRP	0.465
RRIRMRPPRLPRPRPRPMIVPRP	-0.101
RRIRRRPPRLPRPRPRPKPWPRP	0.274
RRIRHRPPRLPRPRPRPFMSPRP	-0.301
RRIRWRPPRLPRPRPRPGQPPRP	0.326
RRIRTRPPRLPRPRPRPTIAPRP	-0.372
RRIRERPPRLPRPRPRPSFSPRP	-0.765
RRIRVRPPRLPRPRPRPCADPRP	-0.101
RRIRPRPPRLPRPRPRPTVYPRP	-0.296
RRIRGRPPRLPRPRPRPCELPRP	-0.02
RRIRWRPPRLPRPRPRPHKNPRP	-0.13
RRIRCRPPRLPRPRPRPCPPPRP	-0.0764
RRIRPRPPRLPRPRPRPWQMPRP	0.0571
RRIRHRPPRLPRPRPRPMQMPRP	-0.00907

Sequence	shrunken log2 fold change
RRIRNRPPRLPRPRPRPVPLPRP	-0.539
RRIRGRPPRLPRPRPRPMNFPRP	-0.0655
RRIRFRPPRLPRPRPRPKMHPRP	0.0482
RRIRGRPPRLPRPRPRPIVGPRP	0.00341
RRIRFRPPRLPRPRPRPELVPRP	0.616
RRIRARPPRLPRPRPRPAMTPRP	0.356
RRIRWRPPRLPRPRPRPNNEPRP	-0.0931
RRIRWRPPRLPRPRPRPGNVPRP	-0.127
RRIRTRPPRLPRPRPRPIWSPRP	0.0914
RRIRLRPPRLPRPRPRPIMSPRP	-0.2
RRIRRRPPRLPRPRPRPDASPRP	0.0354
RRIRARPPRLPRPRPRPQWCPRP	-0.0868
RRIRGRPPRLPRPRPRPNGNPRP	0.0103
RRIRWRPPRLPRPRPRPRENPRP	0.707
RRIRERPPRLPRPRPRPKWLPRP	0.226
RRIRMRPPRLPRPRPRPMKFPRP	0.0534
RRIRNRPPRLPRPRPRPKGPPRP	0.0947
RRIRYRPPRLPRPRPRPWIYPRP	-0.138
RRIRIRPPRLPRPRPRPDLTPRP	-0.00701
RRIRLRPPRLPRPRPRPEWSPRP	-0.178
RRIRLRPPRLPRPRPRPQLAPRP	0.384
RRIRYRPPRLPRPRPRPWVSPRP	-0.013
RRIRARPPRLPRPRPRPKICPRP	0.0997
RRIRCRPPRLPRPRPRPWSPPRP	-0.0395
RRIRKRPPRLPRPRPRPMWIPRP	-0.0247

Sequence	shrunken log2 fold change
RRIRYRPPRLPRPRPRPTSEPRP	-0.0408
RRIRARPPRLPRPRPRPACEPRP	0.879
RRIRRRPPRLPRPRPRPADWPRP	0.652
RRIRQRPPRLPRPRPRPCFCPRP	-0.0837
RRIRMRPPRLPRPRPRPIWTPRP	0.12
RRIRPRPPRLPRPRPRPSNGPRP	-0.113
RRIRERPPRLPRPRPRPEVMPRP	0.378
RRIRHRPPRLPRPRPRPFDQPRP	-0.0783
RRIRSRPPRLPRPRPRPDLNPRP	0.0448
RRIRMRPPRLPRPRPRPRWIPRP	0.00451
RRIRDRPPRLPRPRPRPNCNPRP	1.33
RRIRCRPPRLPRPRPRPVCIPRP	-0.499
RRIRDRPPRLPRPRPRPPWKPRP	0.141
RRIRMRPPRLPRPRPRPCTFPRP	-0.209
RRIRWRPPRLPRPRPRPRAPPRP	0.84
RRIRARPPRLPRPRPRPNLAPRP	-0.179
RRIRMRPPRLPRPRPRPGNYPRP	-0.0658
RRIRIRPPRLPRPRPRPMSLPRP	-0.0475
RRIRVRPPRLPRPRPRPIAGPRP	0.0142
RRIRTRPPRLPRPRPRPIPEPRP	-0.0588
RRIRRRPPRLPRPRPRPGMFPRP	0.00289
RRIRIRPPRLPRPRPRPMETPRP	-0.0335
RRIRKRPPRLPRPRPRPQYVPRP	-0.143
RRIRQRPPRLPRPRPRPDAHPRP	-0.0825
RRIRARPPRLPRPRPRPCIIPRP	-0.076

From the supplement of paper PMC9112550, “Optimization of the antimicrobial peptide Bac7 by deep mutational scanning” (BMC Biology, 2022)
